In doi:10.1101/2025.10.04.680434:

Target: human 40S ribosomal subunit (human) (UniProt P62269)
Test: cryo-EM structure

## human eIF3 (from UniProt P55884 1-814; Q99613 1-913; O15371 1-548; O75821 1-320; Q13347 1-325) (complex)
  other: 40%
